Substrate in data set [1]: N[C@@H](CCC(=O)N[C@@H](CSSC[C@H](N)C(=O)O)C(=O)NCC(=O)O)C(=O)O
Nature of the data set: purified protein, by the assay type. As to conditions: pH 8.0; 25.0 °C. The arrangement: GSSCys oxidoreductase assay, steady-state kinetics, coupled NADPH consumption at 340 nm, pH 8.0, 25 °C. How it is done: Steady-state kinetics of wild-type and mutant ScGrx7 and HsGrx5^C122S in the GSSCys and [compound left out] assays were determined spectrophotometrically by monitoring the consumption of NADPH at 340 nm and 25 °C using a thermostated Jasco V-650 UV/vis spectrophotometer[11],[19],[25]. Fresh stock solutions of NADPH, GSH, GR, and GSSCys or [compound left out] were prepared in assay buffer containing 0.1 M Tris/HCl, 1 mM EDTA, pH 8.0 before each experiment. Both assays were performed with 0.1 mM NADPH and 1 U/ml ScGR. The following final protein concentrations were used for Y110F/H/A (5–150 nM), D144A/K (10 nM), E147A/K (10 nM), R153A/E (25–50 nM), ScGrx7^WP (20 nM), ScGrx7^loop (up to 1.4 µM), ScGrx7^WP+loop (up 2.6 µM), HsGrx5^C122S (up to 15 µM), HsGrx5^RR (up to 12 µM), HsGrx5^loop (up to 1.6 µM), and HsGrx5^RR+loop (up to 4.0 µM). For the GSSCys assays, GSH was varied between 50 µM and 1.5 mM at fixed GSSCys concentrations (25, 50, 100, and 150 µM). NADPH, GSH, and GR were mixed in assay buffer before Grx was added and a baseline was recorded for 30 s. All GSSCys assays were started by the addition of GSSCys. The absorbance of a reference cuvette containing all components but no Grx was measured in parallel and subtracted from the obtained Grx activity. For the [compound left out] assays, GSH was varied between 100 µM and 2.0 mM at fixed concentrations of [compound left out] (0.18, 0.37, 0.55, and 0.74 mM). NADPH, GSH, and [compound left out] were preincubated in assay buffer for 2 min before GR was added and a baseline was recorded for 30 s. All [compound left out] assays were started by the addition of enzyme. Kinetic data were analyzed in Excel and SigmaPlot 13 by nonlinear and linear regression according to Michaelis–Menten, Lineweaver–Burk, Eadie–Hofstee, and Hanes theory[11],[19],[25]. 13 Supplementary Figure 7 Supplementary Figure 7 | GSSCys assay steady-state kinetics of ScGrx7 wild-type enzyme and D144X mutants. (a) Michaelis-Menten plots of the GSH-dependent reaction velocity at different initial concentrations of GSSCys. […]

Substrate in data set [2]: N[C@@H](CCC(=O)N[C@@H](CS)C(=O)NCC(=O)O)C(=O)O
Nature of the data set: purified protein, by the assay type. The arrangement: Disulfide oxidoreductase assay, steady-state kinetics, coupled NADPH consumption at 340 nm, pH 8.0, 25 °C. As to conditions: pH 8.0; 25.0 °C. As for the experimental part:
Steady-state kinetics of wild-type and mutant ScGrx7 and HsGrx5^C122S in the GSSCys and [compound left out] assays were determined spectrophotometrically by monitoring the consumption of NADPH at 340 nm and 25 °C using a thermostated Jasco V-650 UV/vis spectrophotometer[11],[19],[25]. Fresh stock solutions of NADPH, GSH, GR, and GSSCys or [compound left out] were prepared in assay buffer containing 0.1 M Tris/HCl, 1 mM EDTA, pH 8.0 before each experiment. Both assays were performed with 0.1 mM NADPH and 1 U/ml ScGR. The following final protein concentrations were used for Y110F/H/A (5–150 nM), D144A/K (10 nM), E147A/K (10 nM), R153A/E (25–50 nM), ScGrx7^WP (20 nM), ScGrx7^loop (up to 1.4 µM), ScGrx7^WP+loop (up 2.6 µM), HsGrx5^C122S (up to 15 µM), HsGrx5^RR (up to 12 µM), HsGrx5^loop (up to 1.6 µM), and HsGrx5^RR+loop (up to 4.0 µM). For the GSSCys assays, GSH was varied between 50 µM and 1.5 mM at fixed GSSCys concentrations (25, 50, 100, and 150 µM). NADPH, GSH, and GR were mixed in assay buffer before Grx was added and a baseline was recorded for 30 s. All GSSCys assays were started by the addition of GSSCys. The absorbance of a reference cuvette containing all components but no Grx was measured in parallel and subtracted from the obtained Grx activity. For the [compound left out] assays, GSH was varied between 100 µM and 2.0 mM at fixed concentrations of [compound left out] (0.18, 0.37, 0.55, and 0.74 mM). NADPH, GSH, and [compound left out] were preincubated in assay buffer for 2 min before GR was added and a baseline was recorded for 30 s. All [compound left out] assays were started by the addition of enzyme. Kinetic data were analyzed in Excel and SigmaPlot 13 by nonlinear and linear regression according to Michaelis–Menten, Lineweaver–Burk, Eadie–Hofstee, and Hanes theory[11],[19],[25].

B1: ScGrx7 (Saccharomyces cerevisiae S288C) (protein)
chain: SVNESITTHHPDSLVTFDNSGNAPGTHQSVHDTVNTQDKEAEEVDKNSGDAEFDAAAEYNKIMEQSPMIVFSKTGCPYSKKLKALLTNSYTFSPSYYVVELDRHEHTKELQDQIEKVTGRRTVPNVIIGGTSRGGYTEIAELHKNDELLDSFKKWSDGAFTVKANSQSESA
notes: E. coli XL1-Blue, pQE30; N-terminal MRGS(H)6 tag
As for B1, in data set [1], the Km came out at 155 ± 29.9 µM, the kcat was found to be 114 ± 13 s⁻¹ and the kcat/Km is 735000 M⁻¹ s⁻¹. Moreover, in data set [2], the Km worked out at 1100 ± 100 µM, the kcat stood at 72.9 ± 3.4 s⁻¹ and the kcat/Km turned out to be 66500 M⁻¹ s⁻¹.

By Km is commonly meant the concentration of substrate that gives half-maximal velocity. One may read the kcat as the number of substrate molecules converted per active site and unit of time at saturation. As a reminder, the kcat/Km is the second-order rate constant that governs catalysis at low substrate concentration.

The values are drawn from publication PMC7138851, “Quantitative assessment of the determinant structural differences between redox-active and inactive glutaredoxins” (Nature Communications, 2020).
